Measurements published in ChEMBL document CHEMBL2074147, “Monoamine neurotransmitter transport mediated by the polyspecific cation transporter rOCT1” (FEBS Lett, 1996).
“And” between values parts separate entries of the source, which are not always exact repeats. Equal values may be shown once.

Tests used:
[1] = molecular target: T1, Solute carrier family 22 member 1 (Rattus norvegicus, UniProt Q63089); assay: TP_TRANSPORTER: uptake in Xenopus laevis oocytes; type: functional, cell-based; settings: oocyte
T1 sequence (Q63089 whole entry): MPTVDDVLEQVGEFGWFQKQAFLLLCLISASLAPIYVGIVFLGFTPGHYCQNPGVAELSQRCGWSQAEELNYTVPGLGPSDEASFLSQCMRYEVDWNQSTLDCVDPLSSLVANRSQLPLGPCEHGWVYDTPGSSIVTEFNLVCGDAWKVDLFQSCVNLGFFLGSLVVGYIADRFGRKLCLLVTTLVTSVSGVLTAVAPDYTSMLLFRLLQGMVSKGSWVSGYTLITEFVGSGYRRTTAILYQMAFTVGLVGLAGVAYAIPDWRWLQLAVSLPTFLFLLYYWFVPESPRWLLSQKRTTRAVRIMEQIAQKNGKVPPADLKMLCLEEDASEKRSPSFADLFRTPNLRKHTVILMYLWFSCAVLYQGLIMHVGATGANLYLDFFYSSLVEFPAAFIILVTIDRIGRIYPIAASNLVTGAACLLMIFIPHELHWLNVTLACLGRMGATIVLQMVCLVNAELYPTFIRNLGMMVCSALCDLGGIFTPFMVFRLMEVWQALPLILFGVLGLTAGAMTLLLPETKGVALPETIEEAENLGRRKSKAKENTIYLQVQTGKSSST

[2] = molecular target: T1, Solute carrier family 22 member 1; assay: (§1) TP_TRANSPORTER: uptake (electrogenesis) in Xenopus laevis oocytes; type: functional, cell-based; settings: oocyte
[3] = substrate: NCCc1c[nH]cn1; assay: cells, lysate or membranes named
[4] = substrate: NCCc1ccc(O)c(O)c1; assay: cells, lysate or membranes named
[5] = substrate: CC(=O)OCC[N+](C)(C)C; assay: as §1; type: functional, cell-based, Oocyte
[6] = substrate: NCCc1c[nH]c2ccc(O)cc12; assay: as §1; type: functional, cell-based, Oocyte

C=C[C@H]1C[N@@]2CC[C@H]1C[C@H]2[C@H](O)c1ccnc2ccc(OC)cc12 [QUININE]
Activity [1]: is not a substrate [-]

NC[C@H](O)c1ccc(O)c(O)c1 [NOREPINEPHRINE]
Activity [2]: substrate [+]

C=C[C@H]1C[N@@]2CC[C@H]1C[C@@H]2[C@@H](O)c1ccnc2ccc(OC)cc12 [QUINIDINE]
Activity [1]: is not a substrate [-]

B1: Solute carrier family 22 member 1 (Rattus norvegicus) (protein)
chain: MPTVDDVLEQVGEFGWFQKQAFLLLCLISASLAPIYVGIVFLGFTPGHYCQNPGVAELSQRCGWSQAEELNYTVPGLGPSDEASFLSQCMRYEVDWNQSTLDCVDPLSSLVANRSQLPLGPCEHGWVYDTPGSSIVTEFNLVCGDAWKVDLFQSCVNLGFFLGSLVVGYIADRFGRKLCLLVTTLVTSVSGVLTAVAPDYTSMLLFRLLQGMVSKGSWVSGYTLITEFVGSGYRRTTAILYQMAFTVGLVGLAGVAYAIPDWRWLQLAVSLPTFLFLLYYWFVPESPRWLLSQKRTTRAVRIMEQIAQKNGKVPPADLKMLCLEEDASEKRSPSFADLFRTPNLRKHTVILMYLWFSCAVLYQGLIMHVGATGANLYLDFFYSSLVEFPAAFIILVTIDRIGRIYPIAASNLVTGAACLLMIFIPHELHWLNVTLACLGRMGATIVLQMVCLVNAELYPTFIRNLGMMVCSALCDLGGIFTPFMVFRLMEVWQALPLILFGVLGLTAGAMTLLLPETKGVALPETIEEAENLGRRKSKAKENTIYLQVQTGKSSST
Km [3]: 98.6 µM | Km [4]: 19.4 µM and 51 µM | Km [5]: 46.8 µM | Km [6]: 37.6 µM
